Experimental data: US20160068605A1
Read-outs that look alike come from different tables or passages of the source.

How the values were obtained:
[1] = target: human CD123 SP1 ECD displayed on pDisplay-transfected cells (human) (UniProt P26951); assay: MSD-CAT, hCD123 cells, assay-2
[2] = target: IL3RA-PK (CD123 tagged with ProLink) in HEK293 IL3RA-PK/CSF2RB-EA cells (UniProt P26951)
[3] = target: IL3RA-PK (CD123 tagged with ProLink) in HEK293 IL3RA-PK/CSF2RB-EA cells (UniProt P26951); remark: listed apart in the source
[4] = target: endogenous CD123 on human leukaemia cells (OCI-AML5, TF-1) (human) (UniProt P26951); assay: MSD cell binding assay on OCI-AML5 cells (endogenous CD123)
Chain of endogenous CD123 on human leukaemia cells (OCI-AML5, TF-1) (human) (P26951 19-378): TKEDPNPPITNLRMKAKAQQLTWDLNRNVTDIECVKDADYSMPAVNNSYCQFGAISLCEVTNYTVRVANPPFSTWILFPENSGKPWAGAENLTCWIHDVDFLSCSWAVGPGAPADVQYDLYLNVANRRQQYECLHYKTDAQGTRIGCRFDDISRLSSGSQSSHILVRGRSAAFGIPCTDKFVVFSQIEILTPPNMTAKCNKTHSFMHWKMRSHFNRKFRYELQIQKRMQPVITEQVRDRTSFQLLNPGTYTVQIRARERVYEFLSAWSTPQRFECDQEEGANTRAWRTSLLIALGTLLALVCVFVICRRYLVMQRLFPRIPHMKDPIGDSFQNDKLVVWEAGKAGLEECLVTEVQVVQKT

[5] = target: cyno CD123 ECD displayed on pDisplay-transfected cells (cynomolgus monkey); assay: MSD-CAT, cynoCD123 cells, assay-2
Chain of cyno CD123 ECD displayed on pDisplay-transfected cells (cynomolgus monkey) (chain, as listed by the source): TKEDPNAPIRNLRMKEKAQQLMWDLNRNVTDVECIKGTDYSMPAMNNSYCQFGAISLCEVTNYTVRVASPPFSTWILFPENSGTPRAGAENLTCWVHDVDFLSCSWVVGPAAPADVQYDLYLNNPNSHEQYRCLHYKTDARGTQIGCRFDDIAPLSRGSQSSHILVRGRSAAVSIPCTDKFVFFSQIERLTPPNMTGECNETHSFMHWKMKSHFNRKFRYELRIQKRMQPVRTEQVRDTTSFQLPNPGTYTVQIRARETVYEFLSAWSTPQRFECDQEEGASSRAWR

Chain of human CD123 SP1 ECD displayed on pDisplay-transfected cells (human) (P26951 20-305): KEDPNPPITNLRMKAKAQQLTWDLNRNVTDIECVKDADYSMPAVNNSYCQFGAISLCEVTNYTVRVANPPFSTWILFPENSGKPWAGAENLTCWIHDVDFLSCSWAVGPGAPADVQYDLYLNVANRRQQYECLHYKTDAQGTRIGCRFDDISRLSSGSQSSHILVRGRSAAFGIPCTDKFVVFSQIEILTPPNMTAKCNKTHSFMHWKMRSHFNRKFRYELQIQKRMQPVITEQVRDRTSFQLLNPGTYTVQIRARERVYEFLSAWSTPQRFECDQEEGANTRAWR

B1: 7G3 (antibody, from another filing, V domains shown)
VH: EVQLQQSGPELVKPGASVKMSCKASGYTFTDYYMKWVKQSHGKSLEWIGDIIPSNGATFYNQKFKGKATLTVDRSSSTAYMHLNSLTSEDSAVYYCTRSHLLRASWFAYWGQGTLVTVSA
VL: DFVMTQSPSSLTVTAGEKVTMSCKSSQSLLNSGNQKNYLTWYLQKPGQPPKLLIYWASTRESGVPDRFTGSGSGTDFTLTISSVQAEDLAVYYCQNDYSYPYTFGGGTKLEIKR
- Kd [1]: 0.154 nM
- IC50 (read off the curve): IL-3-induced CD123/CD131 heteromerization (RLU) [2]: 0.05 µg/mL
- IC50 (read off the curve): IL-3-induced CD123/CD131 heteromerization (RLU) [3]: 0.2 µg/mL
- EC50 (read off the curve) [4]: 7 µg/mL
- Kd [5]: 0.057 nM
